Experiment [1] addresses bovine trypsin (bovine). The experiment in a line: enzyme activity titration; pre-titrated bovine trypsin (9 uL, 30 uM) mixed with six dilutions of APPI monomer or dimer; residual activity on 100 uM L-BAPA, 100 mM Tris, 5 mM CaCl2, pH 8.0, 37 C; compared with concentration by absorbance at 280 nm. The following applies: both partners purified.
Experiment [2] deals with T1, mesotrypsin (human, UniProt P35030 81-304).
T1 construct: also called recombinant human mesotrypsin
T1 sequence (looked up): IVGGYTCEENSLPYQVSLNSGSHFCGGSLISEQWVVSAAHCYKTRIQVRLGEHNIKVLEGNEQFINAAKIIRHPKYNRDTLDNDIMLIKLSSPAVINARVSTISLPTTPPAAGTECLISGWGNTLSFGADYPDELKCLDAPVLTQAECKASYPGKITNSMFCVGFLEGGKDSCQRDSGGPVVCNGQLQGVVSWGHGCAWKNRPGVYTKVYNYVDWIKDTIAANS
In words: enzyme inhibition kinetics; mesotrypsin 0.25 nM, Z-GPR-pNA 5-250 uM, APPI monomer 0-400 nM or dimer inhibitor units 0-96 nM, 37 C, 100 mM Tris, 1 mM CaCl2, pH 8.0; global fit to the classic competitive inhibition equation; for the dimer an apparent constant of a single inhibitory unit. The following applies: both partners purified.

B1: dimeric amyloid precursor protein inhibitor (APPI homodimer, two APPI units in tandem joined by a GGGGSx3 linker) (other)
chain: EVCSEQAETGPCRAMISRWYFDVTEGKCAPFFYGGCGGNRNNFDTEEYCMAVCGSAMGGGGSGGGGSGGGGSEVCSEQAETGPCRAMISRWYFDVTEGKCAPFFYGGCGGNRNNFDTEEYCMAVCGSAM
modifications: three disulfides per Kunitz unit. Limits from the printed primers (text says 3L33 residues 4-55 = 290-341). GGGGSx3 linker kept between units. Possible restriction-site residues at the junction and …
Turning to B1, in experiment [1], the “stoichiometry N” value turned out to be 2 trypsin per APPI dimer. Besides, the Ki in experiment [2] came out at 36.1 nM.

Usually stoichiometry N stands for a count of units in the complex or per binding partner.

Source of the values: PMC8631645, “Avidity observed between a bivalent inhibitor and an enzyme monomer with a single active site” (PLoS ONE, 2021).
